Source: publication PMC7144518, “Tumor-derived soluble CD155 inhibits DNAM-1–mediated antitumor activity of natural killer cells” (The Journal of Experimental Medicine, 2020)

T1: extracellular portion of human CD155 tagged with His protein at the C terminus (human, UniProt P15151 21-343)
T1 chain: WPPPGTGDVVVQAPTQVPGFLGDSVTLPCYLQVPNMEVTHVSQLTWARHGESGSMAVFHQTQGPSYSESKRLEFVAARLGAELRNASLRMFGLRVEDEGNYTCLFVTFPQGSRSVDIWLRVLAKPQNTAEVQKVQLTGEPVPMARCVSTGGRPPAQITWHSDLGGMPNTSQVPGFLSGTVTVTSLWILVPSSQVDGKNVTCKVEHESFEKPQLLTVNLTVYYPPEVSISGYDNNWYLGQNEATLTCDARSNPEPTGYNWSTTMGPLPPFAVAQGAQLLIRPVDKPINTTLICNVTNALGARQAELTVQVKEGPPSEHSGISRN

T2: extracellular portion of human CD155 tagged with His protein at the C terminus (human, UniProt P15151 21-343)
T2 construct: human CD155 (poliovirus receptor, nectin-like protein-5), extracellular portion; R&D Systems"); also called sCD155-His; human His-tagged sCD155; source: bought: R&D Systems; not shown: His, C-terminal, kept
T2 sequence (looked up): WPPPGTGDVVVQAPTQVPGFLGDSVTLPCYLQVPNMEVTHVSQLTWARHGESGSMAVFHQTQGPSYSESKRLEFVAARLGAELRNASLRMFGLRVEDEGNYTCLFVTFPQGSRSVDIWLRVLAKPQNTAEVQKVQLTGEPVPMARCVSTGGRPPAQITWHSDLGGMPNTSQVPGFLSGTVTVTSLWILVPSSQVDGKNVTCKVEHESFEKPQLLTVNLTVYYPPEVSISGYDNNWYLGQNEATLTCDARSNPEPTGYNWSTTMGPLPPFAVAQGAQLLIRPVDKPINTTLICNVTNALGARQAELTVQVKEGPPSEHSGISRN

T3: extracellular portion of mouse CD155 tagged with His protein at the C terminus (mouse)
T3 chain: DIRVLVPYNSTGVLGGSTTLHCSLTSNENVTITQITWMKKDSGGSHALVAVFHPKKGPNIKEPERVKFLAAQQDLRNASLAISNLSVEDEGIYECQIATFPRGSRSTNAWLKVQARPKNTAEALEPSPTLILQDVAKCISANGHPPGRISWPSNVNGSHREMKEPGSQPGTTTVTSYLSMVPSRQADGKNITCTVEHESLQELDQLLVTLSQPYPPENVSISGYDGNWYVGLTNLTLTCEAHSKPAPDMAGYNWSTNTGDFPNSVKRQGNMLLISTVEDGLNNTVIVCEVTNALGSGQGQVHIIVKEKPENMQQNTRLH


What was measured:
[1] = biological target: T1, extracellular portion of human CD155 …; assay: BLI
[2] = biological target: T2, extracellular portion of human CD155 …; assay: BLI; His-tagged recombinant CD155 (20 µg/ml) loaded on a Ni-NTA biosensor; Fc fusion proteins as analytes at three concentrations; kinetics buffer; association 120 s, dissociation 120 s; global mode of BLItz; settings: both partners purified
[3] = biological target: T3, extracellular portion of mouse CD155 …; assay: BLI

| Kd [1] [nM] | binding result [2] | Kd [3] [nM] | Binder |
| --- | --- | --- | --- |
| 3.56 | binds |  | human DNAM-1 Fc fusion protein (Fc fusion, UniProt Q15762 19-254, looked up, human DNAM-1 (DNAX accessory molecule 1, CD226), extracellular portion; source: bought: R&D Systems) EEVLWHTSVPFAENMSLECVYPSMGILTQVEWFKIGTQQDSIAIFSPTHGMVIRKPYAERVYFLNSTMASNNMTLFFRNASEDDVGYYSCSLYTYPQGTWQKVIQVVQSDSFEAAVPSNSHIVSEPGKNVTLTCQPQMTWPVQAVRWEKIQPRQIDLLTYCNLVHGRNFTSKFPRQIVSNCSHGRWSVIVIPDVTVSDSGLYRCYLQASAGENETFVMRLTVAEGKTDNQYTLFVA |
|  |  | 22.4 | mouse TIGIT Fc fusion protein (Fc fusion) TIDTKRNISAEEGGSVILQCHFSSDTAEVTQVDWKQQDQLLAIYSVDLGWHVASVFSDRVVPGPSLGLTFQSLTMNDTGEYFCTYHTYPGGIYKGRIFLKVQESSDDRNGLAQFQTAPLG |
|  |  | 8.83 | mouse DNAM-1 Fc fusion protein (Fc fusion) EETLWDTTVRLSETMTLECVYPLTHNLTQVEWTKNTGTKTVSIAVYNPNHNMHIESNYLHRVHFLNSTVGFRNMSLSFYNASEADIGIYSCLFHAFPNGPWEKKIKVVWSDSFEIAAPSDSYLSAEPGQDVTLTCQLPRTWPVQQVIWEKVQPHQVDILASCNLSQETRYTSKYLRQTRSNCSQGSMKSILIIPNAMAADSGLYRCRSEAITGKNKSFVIRLIITDGGTNKHFILP |
| 15.2 | binds |  | human TIGIT Fc fusion protein (Fc fusion, UniProt Q495A1 22-141, looked up, human TIGIT, extracellular portion; source: bought: R&D Systems) MMTGTIETTGNISAEKGGSIILQCHLSSTTAQVTQVNWEQQDQLLAICNADLGWHISPSFKDRVAPGPGLGLTLQSLTVNDTGEYFCIYHTYPDGTYTGRIFLEVLESSVAEHGARFQIP |
|  |  | 29.7 | mouse CD96 Fc fusion protein (Fc fusion) VWEELFNVGDDVYALPGSDINLTCQTKEKNFLVQMQWSKVTDKNDMIALYHPQYGLYCGQEHACESQVAATETEKGVTNWTLYLRNISSALGGKYECIFTLYPEGIKTTVYNLIVEPYTQDEHNYTIEIETNRTLEIPCFQNTSSEIPPRFTFSWLVEKDGVEEVLFTHHHHVNNSTSFKGRIRLGGDYRLHLSPVQIQDDGRTFSCHLTVNPLKAWKMSTTVKVFAKPEILMTVENSTMDVLGERVFTCLLKNVFPKANITWFIDGRFLQGNEEGIYITNEEKNCSSGFWELKSVLTRMHSGPSQSNNMTAWCMALSPGPRNKMWNTSSQPITVSFDSVIAPTKHLPTVTGSTLGTQPFSDAGVSPTGYLATPSVTIVDENGLTPDATPQTSNSSMTTKDGNYLEASSGTDAKNSSRAAASSKSGSWPFPFTSPPEWHSLPGTSTGPQEPDSPVSWIPSEVHTSAPLDASLAPHDTIISTTTEFPNVLTTANGTTKIDHGPITSIIVNQPSDGM |
